This is an account of results in US12006356 (JUNO THERAPEUTICS, dated 2024).

Test [1] addresses T1, human CCT5 (human, UniProt P48643 2-541, limits assumed).
T1 construct: also called Chaperonin Containing TCP1 Subunit 5; TRiC protein CCT5
As to the kind of experiment: immunoprecipitation from cytosolic and plasma membrane lysate fractions, Western blot for CCT5. The text has this: Cytosolic and plasma membrane (surface) lysate preparations of SK-BR-3 and OvCar3 cells were probed by Western blot for CCT5 after immunoprecipitation with the antibody identified Example 1, or a negative control antibody, Panitumumab.

For test [2], the target named is T2, murine CCT5 (mouse, UniProt P80316 2-541).
T2 construct: Endogenous CCT5 in B16-F10 melanoma cells; also called mouse CCT5
Briefly: immunoprecipitation and Western blot, B16-F10 cells.

In test [3] the target is PRPF8 (UniProt Q6P2Q9 2-2335). As to the kind of experiment: immunoprecipitation from OvCar8, SKBR3 and MIAPACA2 lysates, Western blot with rabbit polyclonal antibodies. As for the experimental part:
(§1) A. Immunoprecipitation and Mass Spectrometry to Identify Candidate Target Proteins Whole cell lysates of exemplary ovarian or leukemia cell lines were used for immunoprecipitation experiments with the antibody identified in Example 1. The identified antibody was covalently conjugated to magnetic epoxy beads, and 10 µg of bead-bound antibody were incubated with 1-2 mL whole cell lysate (at 1 mg protein/mL lysate) of ovarian carcinoma cell line (OvCar8) or acute myeloid leukemia cell line (SKM1). The cell lysates were also incubated with control antibodies known to bind the cell line, or beads alone. The immunoprecipitates were then washed and eluted first with low pH, and second with a cationic detergent elution buffer. The eluates were resolved by SDS-PAGE and stained with a protein stain to visualize the bands.
(§2) The immunoprecipitation with the identified antibody was repeated, with OvCar8 cells and also SKBR3 (breast cancer) and MIAPACA2 (pancreas carcinoma) cell lines. The eluates were resolved by SDS-PAGE, transferred for Western blot analysis using rabbit polyclonal antibodies specific to the top 10 candidate proteins identified in part A: RalGapa2, RalGapB, SPTAN1, IMPDH2, DNAJC13, SPTAN1, SNRNP200, PRPF8, CCT4, and CCT2. CCT2 and CCT4 were specifically detected in the immunoprecipitates from all assessed cancer cell lines. No bands corresponding to the other proteins were detected. CCT2 and CCT4 are both part of the TCP1 ring complex (TRiC).

Test [4] deals with DNAJC13 (UniProt O75165 1-2243). Described as above. The method, then:
as §1, §2

Test [5] concerns the target SPTAN1 (UniProt Q13813 1-2472, limits assumed). The test is described as above. The method, then:
as §1, §2

The target in test [6] is T3, RalGapB (UniProt Q86X10 1-1494, limits assumed).
T3 sequence (looked up): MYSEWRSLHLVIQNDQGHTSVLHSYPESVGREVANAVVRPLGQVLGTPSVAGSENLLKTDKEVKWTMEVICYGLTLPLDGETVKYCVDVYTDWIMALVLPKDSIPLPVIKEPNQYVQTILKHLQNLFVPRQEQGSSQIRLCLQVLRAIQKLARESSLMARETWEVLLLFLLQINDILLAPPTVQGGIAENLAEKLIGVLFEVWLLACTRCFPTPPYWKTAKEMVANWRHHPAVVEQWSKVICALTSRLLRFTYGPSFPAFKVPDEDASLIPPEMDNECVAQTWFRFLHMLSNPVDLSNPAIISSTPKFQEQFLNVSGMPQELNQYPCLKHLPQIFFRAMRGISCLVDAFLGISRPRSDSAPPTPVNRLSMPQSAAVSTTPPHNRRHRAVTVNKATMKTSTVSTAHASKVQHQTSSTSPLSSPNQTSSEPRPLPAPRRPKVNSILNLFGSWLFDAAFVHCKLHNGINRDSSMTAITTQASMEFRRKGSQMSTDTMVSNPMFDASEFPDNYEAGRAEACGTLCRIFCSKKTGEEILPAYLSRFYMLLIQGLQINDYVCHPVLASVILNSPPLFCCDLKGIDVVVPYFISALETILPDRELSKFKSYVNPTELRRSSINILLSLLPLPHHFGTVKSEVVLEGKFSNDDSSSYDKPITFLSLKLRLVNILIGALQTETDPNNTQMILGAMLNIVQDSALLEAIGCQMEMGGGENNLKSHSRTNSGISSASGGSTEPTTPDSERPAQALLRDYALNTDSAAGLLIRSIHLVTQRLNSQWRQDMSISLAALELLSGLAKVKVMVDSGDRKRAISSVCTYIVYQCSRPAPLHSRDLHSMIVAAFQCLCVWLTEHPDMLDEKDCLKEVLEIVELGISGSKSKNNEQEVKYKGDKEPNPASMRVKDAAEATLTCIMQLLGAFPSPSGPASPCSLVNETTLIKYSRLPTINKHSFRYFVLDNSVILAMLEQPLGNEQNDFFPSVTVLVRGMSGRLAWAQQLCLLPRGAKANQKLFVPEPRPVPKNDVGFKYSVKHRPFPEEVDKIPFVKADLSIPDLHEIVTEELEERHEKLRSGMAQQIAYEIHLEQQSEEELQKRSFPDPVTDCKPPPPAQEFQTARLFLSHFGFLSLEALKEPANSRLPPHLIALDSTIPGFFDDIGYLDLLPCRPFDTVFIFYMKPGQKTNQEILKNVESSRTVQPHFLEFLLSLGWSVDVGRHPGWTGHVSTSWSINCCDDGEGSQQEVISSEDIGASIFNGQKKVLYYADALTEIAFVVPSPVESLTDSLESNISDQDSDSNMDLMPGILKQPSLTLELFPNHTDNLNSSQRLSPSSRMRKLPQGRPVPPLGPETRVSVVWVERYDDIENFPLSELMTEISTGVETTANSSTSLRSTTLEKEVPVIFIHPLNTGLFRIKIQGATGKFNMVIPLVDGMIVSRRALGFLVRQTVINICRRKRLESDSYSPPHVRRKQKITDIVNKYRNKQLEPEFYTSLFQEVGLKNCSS
The test is described as above. The method, then:
as §1, §2

Test [7] has as its target SNRNP200 (UniProt O75643 1-2136, limits assumed). The test is described as above. As for the experimental part: as §1, §2
Test [8] addresses RalGapa2 (UniProt Q2PPJ7 1-1873, limits assumed). The test is described as above. The method, then:
as §1, §2

T2 sequence (P80316 2-541 limits assumed): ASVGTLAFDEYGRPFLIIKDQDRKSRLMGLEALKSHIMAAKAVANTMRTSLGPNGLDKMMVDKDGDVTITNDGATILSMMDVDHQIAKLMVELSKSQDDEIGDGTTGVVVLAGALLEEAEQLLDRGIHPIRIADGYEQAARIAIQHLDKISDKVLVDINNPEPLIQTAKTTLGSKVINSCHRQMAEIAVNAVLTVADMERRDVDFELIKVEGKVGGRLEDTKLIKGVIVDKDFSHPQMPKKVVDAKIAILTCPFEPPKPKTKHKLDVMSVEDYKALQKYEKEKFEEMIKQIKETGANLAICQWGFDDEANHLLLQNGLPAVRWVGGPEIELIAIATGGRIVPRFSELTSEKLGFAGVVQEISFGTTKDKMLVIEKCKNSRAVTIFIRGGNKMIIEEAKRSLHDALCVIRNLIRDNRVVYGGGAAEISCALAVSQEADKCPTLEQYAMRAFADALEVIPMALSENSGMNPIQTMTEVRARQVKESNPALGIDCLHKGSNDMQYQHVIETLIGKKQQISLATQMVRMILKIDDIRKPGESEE
Sequence of RalGapa2 (Q2PPJ7 whole entry): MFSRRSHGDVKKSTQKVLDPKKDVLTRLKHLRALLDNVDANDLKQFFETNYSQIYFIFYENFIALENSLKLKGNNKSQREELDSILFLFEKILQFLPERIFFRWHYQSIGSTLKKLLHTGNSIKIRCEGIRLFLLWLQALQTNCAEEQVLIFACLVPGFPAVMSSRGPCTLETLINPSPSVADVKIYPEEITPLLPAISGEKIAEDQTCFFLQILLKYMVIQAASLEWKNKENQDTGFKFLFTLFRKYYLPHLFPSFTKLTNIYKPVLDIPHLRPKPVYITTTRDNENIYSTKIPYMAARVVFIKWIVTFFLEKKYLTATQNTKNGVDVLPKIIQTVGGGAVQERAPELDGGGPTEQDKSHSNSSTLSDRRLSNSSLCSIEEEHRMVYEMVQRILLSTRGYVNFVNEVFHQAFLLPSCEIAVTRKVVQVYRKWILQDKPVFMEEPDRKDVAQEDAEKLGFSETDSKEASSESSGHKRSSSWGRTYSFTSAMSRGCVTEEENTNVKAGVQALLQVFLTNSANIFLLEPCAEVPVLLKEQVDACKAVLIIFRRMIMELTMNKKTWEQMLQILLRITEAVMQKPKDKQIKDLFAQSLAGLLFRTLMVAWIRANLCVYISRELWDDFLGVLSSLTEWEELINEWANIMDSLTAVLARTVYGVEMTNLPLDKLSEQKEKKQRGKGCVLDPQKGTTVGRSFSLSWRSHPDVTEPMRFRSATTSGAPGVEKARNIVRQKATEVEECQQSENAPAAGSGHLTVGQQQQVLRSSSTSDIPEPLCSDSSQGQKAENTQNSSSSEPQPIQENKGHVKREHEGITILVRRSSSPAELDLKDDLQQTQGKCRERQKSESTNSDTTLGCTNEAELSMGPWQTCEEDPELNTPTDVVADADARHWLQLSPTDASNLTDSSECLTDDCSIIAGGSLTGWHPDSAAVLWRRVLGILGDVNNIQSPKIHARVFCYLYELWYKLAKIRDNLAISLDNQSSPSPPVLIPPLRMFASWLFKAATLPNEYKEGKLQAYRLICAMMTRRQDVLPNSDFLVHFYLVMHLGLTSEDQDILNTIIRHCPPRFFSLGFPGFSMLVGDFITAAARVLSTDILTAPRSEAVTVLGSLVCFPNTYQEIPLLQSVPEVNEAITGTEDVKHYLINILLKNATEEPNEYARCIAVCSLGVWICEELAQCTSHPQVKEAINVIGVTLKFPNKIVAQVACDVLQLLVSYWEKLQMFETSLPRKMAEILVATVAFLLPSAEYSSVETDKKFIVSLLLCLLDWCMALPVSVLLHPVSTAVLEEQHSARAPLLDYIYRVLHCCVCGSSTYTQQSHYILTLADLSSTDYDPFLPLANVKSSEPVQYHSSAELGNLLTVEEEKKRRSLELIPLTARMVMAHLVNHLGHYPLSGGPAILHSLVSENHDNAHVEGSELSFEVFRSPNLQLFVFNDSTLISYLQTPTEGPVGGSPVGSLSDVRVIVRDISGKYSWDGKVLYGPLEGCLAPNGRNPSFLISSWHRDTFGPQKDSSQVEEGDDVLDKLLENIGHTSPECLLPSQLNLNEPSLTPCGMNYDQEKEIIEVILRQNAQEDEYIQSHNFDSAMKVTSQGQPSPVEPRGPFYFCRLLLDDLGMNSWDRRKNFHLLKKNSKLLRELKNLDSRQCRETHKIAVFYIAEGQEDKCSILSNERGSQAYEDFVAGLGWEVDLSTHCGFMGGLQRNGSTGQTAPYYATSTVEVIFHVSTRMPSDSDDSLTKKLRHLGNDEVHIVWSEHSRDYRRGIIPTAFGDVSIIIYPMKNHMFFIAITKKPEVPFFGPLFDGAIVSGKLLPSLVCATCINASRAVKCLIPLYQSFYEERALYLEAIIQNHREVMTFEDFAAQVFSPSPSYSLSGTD
Sequence of DNAJC13 (O75165 whole entry): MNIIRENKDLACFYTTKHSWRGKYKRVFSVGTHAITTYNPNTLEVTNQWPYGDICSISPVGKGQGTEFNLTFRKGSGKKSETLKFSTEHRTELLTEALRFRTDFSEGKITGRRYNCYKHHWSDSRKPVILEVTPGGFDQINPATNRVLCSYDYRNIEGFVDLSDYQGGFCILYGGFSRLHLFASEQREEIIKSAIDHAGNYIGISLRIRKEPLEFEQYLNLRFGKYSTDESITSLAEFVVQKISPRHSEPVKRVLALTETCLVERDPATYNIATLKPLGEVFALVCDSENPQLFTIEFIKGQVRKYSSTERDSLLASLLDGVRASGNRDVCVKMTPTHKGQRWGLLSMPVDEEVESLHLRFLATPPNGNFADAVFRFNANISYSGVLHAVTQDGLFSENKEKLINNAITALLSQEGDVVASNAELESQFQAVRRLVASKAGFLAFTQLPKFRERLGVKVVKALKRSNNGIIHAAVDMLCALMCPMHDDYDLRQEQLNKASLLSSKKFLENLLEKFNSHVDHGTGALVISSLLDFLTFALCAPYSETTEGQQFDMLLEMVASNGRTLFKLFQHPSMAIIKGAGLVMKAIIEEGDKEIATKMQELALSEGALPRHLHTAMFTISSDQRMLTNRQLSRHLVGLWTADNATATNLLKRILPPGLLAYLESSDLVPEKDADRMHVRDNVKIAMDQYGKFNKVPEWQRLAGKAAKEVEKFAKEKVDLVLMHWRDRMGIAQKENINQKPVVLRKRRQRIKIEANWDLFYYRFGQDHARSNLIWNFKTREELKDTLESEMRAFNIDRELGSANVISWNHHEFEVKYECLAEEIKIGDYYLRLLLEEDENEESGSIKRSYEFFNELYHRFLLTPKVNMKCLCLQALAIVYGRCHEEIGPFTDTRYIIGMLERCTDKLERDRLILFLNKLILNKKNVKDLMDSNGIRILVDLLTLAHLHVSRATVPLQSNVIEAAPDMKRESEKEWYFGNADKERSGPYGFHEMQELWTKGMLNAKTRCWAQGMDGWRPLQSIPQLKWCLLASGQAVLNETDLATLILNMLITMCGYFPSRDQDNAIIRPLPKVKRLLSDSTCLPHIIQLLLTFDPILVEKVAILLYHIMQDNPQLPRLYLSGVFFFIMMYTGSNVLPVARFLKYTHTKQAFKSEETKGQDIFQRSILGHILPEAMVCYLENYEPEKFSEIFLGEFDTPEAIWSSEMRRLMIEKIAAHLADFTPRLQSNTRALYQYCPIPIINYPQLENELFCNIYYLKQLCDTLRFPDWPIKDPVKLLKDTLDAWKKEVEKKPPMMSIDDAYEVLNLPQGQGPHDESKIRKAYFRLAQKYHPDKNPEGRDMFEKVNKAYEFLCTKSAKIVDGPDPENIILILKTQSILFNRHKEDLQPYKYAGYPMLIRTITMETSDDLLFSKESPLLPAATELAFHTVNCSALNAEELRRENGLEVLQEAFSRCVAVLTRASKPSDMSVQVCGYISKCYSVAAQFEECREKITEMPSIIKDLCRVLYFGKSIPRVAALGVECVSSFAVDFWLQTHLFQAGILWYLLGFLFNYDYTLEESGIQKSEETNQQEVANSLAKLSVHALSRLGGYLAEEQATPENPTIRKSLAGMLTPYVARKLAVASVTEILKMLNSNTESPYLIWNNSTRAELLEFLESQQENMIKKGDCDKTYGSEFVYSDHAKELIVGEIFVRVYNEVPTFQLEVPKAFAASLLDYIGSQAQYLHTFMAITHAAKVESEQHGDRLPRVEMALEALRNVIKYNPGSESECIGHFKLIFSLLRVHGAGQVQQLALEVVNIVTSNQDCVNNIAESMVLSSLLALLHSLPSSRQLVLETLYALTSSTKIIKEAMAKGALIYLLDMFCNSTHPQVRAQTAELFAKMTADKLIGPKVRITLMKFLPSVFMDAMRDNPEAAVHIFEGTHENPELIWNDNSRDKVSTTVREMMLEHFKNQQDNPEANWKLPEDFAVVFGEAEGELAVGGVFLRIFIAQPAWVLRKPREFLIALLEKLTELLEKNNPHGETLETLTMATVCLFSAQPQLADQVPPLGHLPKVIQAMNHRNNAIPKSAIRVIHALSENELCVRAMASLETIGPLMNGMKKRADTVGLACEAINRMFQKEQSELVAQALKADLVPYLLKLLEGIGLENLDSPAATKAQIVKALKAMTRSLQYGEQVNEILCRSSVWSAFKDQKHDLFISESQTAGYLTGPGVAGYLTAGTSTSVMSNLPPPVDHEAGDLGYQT

B1: exemplary anti-CCT5 antibody identified in Example 1 (antibody, V domains shown)
VH: EVQLVESGGGLVQPGGSLRLSCAASGFTFSSYSMNWVRQAPGKGLEWVSYISSSSSTIYYADSVKGRFTISRDNAKNSLYLQMNSLRDEDTAVYYCARDFKGDCSSTSCYRGGYYYYYGMDVWGQGTTVTVSS
VL: SYELTQPPSVSVSPGQTASITCFGDQLGDKYVSWYQKKPGQSPVLVIYQDANRPSGIPERFSGSNSGNTATLTIRGTQNLDEADYYCQTWGTTTALFGGGTKLTVL
notes: For immunoprecipitation it was covalently conjugated to magnetic epoxy beads; also called the identified antibody
Regarding B1, the binding result in test [1] is on record as “binds”; in test [2], “binds”; in test [3] it was “no binding”; in test [4], “no binding”; in test [5] it was “no binding”; in test [6] it was “no binding”. Further, the binding result in test [7] and in test [8] was “no binding” each time.
